For data set [1], the target named is membrane-bound immunoglobulin heavy mu chain (B-cell receptor, IgM) on Ramos lymphoma cells (Homo sapiens) (UniProt P01871). The following applies: confocal staining of Ramos xenograft brain slices, 1.0 uM, 10 min on ice, 6 mM MgCl2, 1.2 mM CaCl2, PBS, yeast tRNA; U251 glioma 0.81% and normal brain 0.80% ….
For data set [2] the target is unchanged. The following applies: confocal staining of Ramos xenograft brain slices, 1.0 uM, 10 min; target not purified.

Like-named read-outs stand apart in the source and are kept apart here.

UniProt P01871, sequence (P01871 1-450): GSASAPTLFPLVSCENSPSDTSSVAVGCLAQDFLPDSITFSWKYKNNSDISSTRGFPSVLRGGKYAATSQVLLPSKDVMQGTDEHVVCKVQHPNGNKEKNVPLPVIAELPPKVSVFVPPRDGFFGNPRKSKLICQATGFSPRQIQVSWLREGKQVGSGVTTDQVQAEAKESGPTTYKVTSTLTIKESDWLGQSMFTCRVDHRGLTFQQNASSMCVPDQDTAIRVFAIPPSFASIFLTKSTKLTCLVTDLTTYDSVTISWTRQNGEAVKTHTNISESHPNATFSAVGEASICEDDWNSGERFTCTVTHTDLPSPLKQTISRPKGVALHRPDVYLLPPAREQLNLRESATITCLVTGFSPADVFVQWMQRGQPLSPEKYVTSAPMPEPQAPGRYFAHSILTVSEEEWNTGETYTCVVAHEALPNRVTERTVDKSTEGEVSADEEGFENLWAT

Take “AGGAGGATAGTTCGGTGGCTGTTCAGGGTCTCCTCCT [TD05-488]”: in data set [1], the binding (% cells labeled) is 76.7.

As for nonspecific Alexa Fluor 488 aptamer, the binding (% cells labeled) in data set [2] was determined as 2.71.

(Values after patent US20230038866.)
